Patent publication US20140178389A1 (AbbVie / Abbott, published 2014)
Residue numbers refer to the chain shown, from its start. Blank lines part the entries; values can stand above or below the binder they belong to.

Tests used:
[1] = biological target: T1, recombinant cynomolgus IL-1β (cynomolgus, UniProt P79182 117-268); test: indirect ELISA: mAb captured on goat anti-human IgG, biotinylated IL-1β titrated
T1 construct: It was biotinylated in the ELISA and in the yeast display experiments; also called Cyno IL-1β; Cyno IL-1beta
T1 sequence (looked up): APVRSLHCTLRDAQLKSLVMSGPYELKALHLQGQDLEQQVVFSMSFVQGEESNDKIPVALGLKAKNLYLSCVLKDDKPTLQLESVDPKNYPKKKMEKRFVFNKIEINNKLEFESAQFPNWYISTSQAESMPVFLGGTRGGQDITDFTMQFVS
Description: (§1) An indirect ELISA was performed to assess the relative affinity of the affinity matured h1B12.1 mAbs to a human chimeric version of the murine 1B12 mAb. An ELISA plate was coated with goat anti-human IgG (Jackson Immunoresearch cat#109-005-098) at 0.5 ug/mL overnight. The plate was blocked with 5% milk for 1 hour and washed three times with TPBS. Affinity-matured h1B12.1 antibodies and human IgG control (Sigma cat#12511) were incubated on the plate for 30 min at 0.2 μg/mL and then the plates were washed three times. A titration of biotinylated human IL-1β or biotinylated cyno IL-1β was added to the plate, starting at 10 nM and decreasing in concentration following a series of 1:3 dilutions. Binding of biotinylated IL-1β was detected with a 1:10000 dilution of peroxidase-conjugated streptavidin (Jackson Immunoresearch cat#016-030-084) and TMB substrate (Invitrogen). The data were fit in Graphpad prism to determine the EC₅₀ values.

recombinant human IL-1β [2] = biological target: T2, recombinant human IL-1β (human, UniProt P01584 117-269); test: as above
T2 construct: It was biotinylated in the ELISA and in the yeast display experiments; also called Hu IL-1beta; huIL-1b
Description: as §1

[3] = biological target: T3, recombinant cynomolgus IL-1α (cynomolgus, UniProt P79340 113-271); test: cell-based or functional assay
T3 sequence (looked up): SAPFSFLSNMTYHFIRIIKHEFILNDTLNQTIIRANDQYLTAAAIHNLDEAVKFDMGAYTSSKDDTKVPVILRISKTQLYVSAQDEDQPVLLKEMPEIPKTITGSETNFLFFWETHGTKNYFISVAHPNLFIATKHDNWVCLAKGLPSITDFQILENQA

recombinant human IL-1α [4] = biological target: T4, recombinant human IL-1α (human, UniProt P01583 113-271); test: cell-based or functional assay
T4 sequence: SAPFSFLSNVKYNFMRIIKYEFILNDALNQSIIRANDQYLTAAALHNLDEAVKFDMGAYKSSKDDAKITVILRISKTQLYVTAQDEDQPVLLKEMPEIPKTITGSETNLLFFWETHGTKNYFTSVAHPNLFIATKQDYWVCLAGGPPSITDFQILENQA

[5] = biological target: purified native human IL-1β (human, UniProt P01584 117-269); test: cell-based or functional assay
[6] = biological target: T1, recombinant cynomolgus IL-1β; test: cell-based or functional assay
[7] = biological target: T5, native human IL-1α present in crude supernatants (human, UniProt P01583 113-271, limits assumed); test: cell-based or functional assay
T5 sequence (looked up): T4 sequence

recombinant human IL-1β [8] = biological target: T2, recombinant human IL-1β; test: cell-based or functional assay
[9] = biological target: T3, recombinant cynomolgus IL-1α; test: SPR (BIAcore), DVD-Ig captured via goat anti-human IgG Fc
Description: (§2) Goat IgGs specific to human IgG Fc were covalently linked to the carboxy methyl dextran matrix on the CMS biosensor chip via free amine groups using an amine coupling kit and the immobilization wizard option in the Biacore instruments controlling software. Specifically, carboxyl groups of the dextran matrix on the chip were activated with NHS and EDC. Goat anti-human IgG Fc antibodies (25 μg/mL), diluted in 10 mM sodium acetate, pH 4.5, were injected across the activated surface. Once the level of binding response reached the desired value, unreacted groups were deactivated by injection of 1M ethanolamine. For binding of IL-1α & IL-1β to captured Ig, a 1 μg/mL concentration of Ig in HBS-EP+ was injected over the goat anti-human IgG Fc surface at a flow rate of 10 μL/min for 1 minute. The net difference in the baseline signal and the signal after the completion of the Ig injection was taken to represent the amount of bound Ig.
(§3) The potency of the 5 DVD-Igs containing affinity matured h1B12.1 domains to recombinant and native IL-1 antigens was determined using the MRC-5 bioassay as shown in Table 24. The binding kinetics of the DVD-Igs to recombinant human and cynomolgus IL-1α and IL-1β were determined using surface plasmon resonance. In some cases, the off-rate could not be determined as they reached the limit of detection of the instrument.

recombinant human IL-1α [10] = biological target: T4, recombinant human IL-1α; test: as above
Description: as §2, §3

[11] = biological target: T1, recombinant cynomolgus IL-1β; test: as above
Description: as §2, §3

recombinant human IL-1β [12] = biological target: T2, recombinant human IL-1β; test: as above
Description: as §2, §3

B1: h1B12-AM4, affinity-matured h1B12.1 IgG1/k mut (234,235) mAb (scFv clone A1) (antibody, V domains shown)
VH: EVQLQESGPGLVKPSETLSLTCTVSGFSLRDYGVSWIRQPPGKGLEWLGLIWGSGDTYYNSPLKSRLTISKDTSKSQVSLKLSSVTAADTAVYYCAKQTNIWGYDLYGMDYWGQGTLVTVSS
VL: DIQMTQSPSSLSASVGDRVTITCQASQDIDMDLNWYQQKPGKAPKLLISQANTLPPGVPSRFSGSGSGTDFTFTISSLQPEDFATYYCLQSDWLPLTFGQGTKLEIKR
notes: also called PR-1354594
- EC50 [1]: 0.025 nM
- EC50 (recombinant human IL-1β [2]): 0.031 nM

B2: DVD1-h1B12.13-SS-X3, human anti-IL-1α/β DVD IgG1/k mut (234,235) (bispecific antibody)
heavy: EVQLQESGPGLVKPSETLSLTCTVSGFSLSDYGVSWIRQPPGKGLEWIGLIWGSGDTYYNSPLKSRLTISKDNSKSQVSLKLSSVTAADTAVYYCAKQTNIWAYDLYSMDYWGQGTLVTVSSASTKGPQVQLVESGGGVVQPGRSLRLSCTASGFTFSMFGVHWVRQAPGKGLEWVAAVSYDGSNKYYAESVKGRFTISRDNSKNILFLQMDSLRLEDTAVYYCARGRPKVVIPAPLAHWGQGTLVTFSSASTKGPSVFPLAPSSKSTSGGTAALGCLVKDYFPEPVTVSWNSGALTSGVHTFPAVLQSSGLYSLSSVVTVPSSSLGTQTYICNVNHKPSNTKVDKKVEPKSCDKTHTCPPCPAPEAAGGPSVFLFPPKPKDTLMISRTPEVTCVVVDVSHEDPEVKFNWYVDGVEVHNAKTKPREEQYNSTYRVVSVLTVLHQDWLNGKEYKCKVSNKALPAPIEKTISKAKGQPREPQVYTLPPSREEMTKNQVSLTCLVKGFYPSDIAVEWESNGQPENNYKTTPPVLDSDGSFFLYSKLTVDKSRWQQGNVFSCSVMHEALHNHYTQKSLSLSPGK
light: DIQMTQSPSSLSASVGDRVTITCQTSTDIDDDLNWYQQKPGKAPKLLISLASTLRPGVPSRFSGSGSGTDFTFTISSLQPEDFATYYCLQSDRLPLTFGQGTKLEIKRTVAAPDIQMTQSPSSVSASVGDRVTITCRASQGISSWLAWYQQKPGKAPKLLIYEASNLETGVPSRFSGSGSGSDFTLTISSLQPEDFATYYCQQTSSFLLSFGGGTKVEHKRTVAAPSVFIFPPSDEQLKSGTASVVCLLNNFYPREAKVQWKVDNALQSGNSQESVTEQDSKDSTYSLSSTLTLSKADYEKHKVYACEVTHQGLSSPVTKSFNRGEC
notes: also called PR-1358316
- Potency (IC50) pM, MRC-5 bioassay [3]: 2440 pM
- Potency (IC50) pM, MRC-5 bioassay (recombinant human IL-1α [4]): 45.4 pM
- Potency (IC50) pM, MRC-5 bioassay [5]: 1.64 pM
- Potency (IC50) pM, MRC-5 bioassay [6]: 3.62 pM
- Potency (IC50) pM, MRC-5 bioassay [7]: 24.4 pM
- Potency (IC50) pM, MRC-5 bioassay (recombinant human IL-1β [8]): 55.9 pM
- Kd [9]: 2.3 nM
- koff [9]: 0.00023 s⁻¹
- kon [9]: 100000 M⁻¹ s⁻¹
- Kd (recombinant human IL-1α [10]): 0.021 nM
- koff (recombinant human IL-1α [10]): 2.9e-06 s⁻¹
- kon (recombinant human IL-1α [10]): 140000 M⁻¹ s⁻¹
- Kd [11]: 0.0015 nM
- koff [11]: 1.7e-05 s⁻¹
- kon [11]: 1.2e+07 M⁻¹ s⁻¹
- Kd (recombinant human IL-1β [12]): 0.00022 nM
- koff (recombinant human IL-1β [12]): 5.1e-06 s⁻¹
- kon (recombinant human IL-1β [12]): 2.3e+07 M⁻¹ s⁻¹

B5: DVD5-h1B12.A3-SS-X3, human anti-IL-1α/β DVD IgG1/k mut (234,235) (bispecific antibody)
heavy: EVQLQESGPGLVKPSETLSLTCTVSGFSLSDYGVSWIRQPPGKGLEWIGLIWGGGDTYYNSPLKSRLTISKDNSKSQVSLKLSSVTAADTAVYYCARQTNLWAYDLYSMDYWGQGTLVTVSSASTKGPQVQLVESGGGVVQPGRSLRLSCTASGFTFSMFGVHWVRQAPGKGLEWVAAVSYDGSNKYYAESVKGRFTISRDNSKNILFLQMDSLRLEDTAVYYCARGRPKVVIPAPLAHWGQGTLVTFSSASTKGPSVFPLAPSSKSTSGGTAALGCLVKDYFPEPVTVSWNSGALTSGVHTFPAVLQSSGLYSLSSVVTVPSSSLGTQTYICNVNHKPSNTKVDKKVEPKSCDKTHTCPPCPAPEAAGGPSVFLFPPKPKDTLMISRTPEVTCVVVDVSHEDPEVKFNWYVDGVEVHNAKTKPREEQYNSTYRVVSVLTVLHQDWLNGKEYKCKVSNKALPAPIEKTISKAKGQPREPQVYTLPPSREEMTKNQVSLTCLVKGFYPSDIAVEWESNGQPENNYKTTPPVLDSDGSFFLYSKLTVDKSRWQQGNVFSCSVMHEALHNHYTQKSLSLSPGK
light: B2 light with T25A, A51G
notes: also called PR-1358321
- Potency (IC50) pM, MRC-5 bioassay [3]: 1920 pM
- Potency (IC50) pM, MRC-5 bioassay (recombinant human IL-1α [4]): 44.3 pM
- Potency (IC50) pM, MRC-5 bioassay [5]: 4.27 pM
- Potency (IC50) pM, MRC-5 bioassay [6]: 6.56 pM
- Potency (IC50) pM, MRC-5 bioassay [7]: 57.6 pM
- Potency (IC50) pM, MRC-5 bioassay (recombinant human IL-1β [8]): 51.2 pM
- Kd [9]: 2.4 nM
- koff [9]: 0.00027 s⁻¹
- kon [9]: 110000 M⁻¹ s⁻¹
- Kd (recombinant human IL-1α [10]): 0.01 nM
- koff (recombinant human IL-1α [10]): 1.6e-06 s⁻¹
- kon (recombinant human IL-1α [10]): 150000 M⁻¹ s⁻¹
- Kd [11]: 0.001 nM
- koff [11]: 1.3e-05 s⁻¹
- kon [11]: 1.3e+07 M⁻¹ s⁻¹
- Kd (recombinant human IL-1β [12]): 0.0005 nM
- koff (recombinant human IL-1β [12]): 1.3e-05 s⁻¹
- kon (recombinant human IL-1β [12]): 2.6e+07 M⁻¹ s⁻¹

Other lines, results leading:

- Potency (IC50) pM, MRC-5 bioassay [3]: 1640 pM
- Potency (IC50) pM, MRC-5 bioassay (recombinant human IL-1α [4]): 42.8 pM
- Potency (IC50) pM, MRC-5 bioassay [5]: 1.91 pM
- Potency (IC50) pM, MRC-5 bioassay [6]: 1.86 pM
- Potency (IC50) pM, MRC-5 bioassay [7]: 72 pM
- Potency (IC50) pM, MRC-5 bioassay (recombinant human IL-1β [8]): 48.6 pM
- Kd [9]: 2 nM
- koff [9]: 0.00021 s⁻¹
- kon [9]: 100000 M⁻¹ s⁻¹
- Kd (recombinant human IL-1α [10]): 0.12 nM
- koff (recombinant human IL-1α [10]): 1.6e-05 s⁻¹
- kon (recombinant human IL-1α [10]): 140000 M⁻¹ s⁻¹
- Kd [11]: 0.0016 nM
- koff [11]: 1.8e-05 s⁻¹
- kon [11]: 1.1e+07 M⁻¹ s⁻¹
- Kd (recombinant human IL-1β [12]): 0.0002 nM
- koff (recombinant human IL-1β [12]): 5.1e-06 s⁻¹
- kon (recombinant human IL-1β [12]): 2.5e+07 M⁻¹ s⁻¹
B3: DVD2-h1B12.21-SS-X3, human anti-IL-1α/β DVD IgG1/k mut (234,235) (bispecific antibody)
heavy: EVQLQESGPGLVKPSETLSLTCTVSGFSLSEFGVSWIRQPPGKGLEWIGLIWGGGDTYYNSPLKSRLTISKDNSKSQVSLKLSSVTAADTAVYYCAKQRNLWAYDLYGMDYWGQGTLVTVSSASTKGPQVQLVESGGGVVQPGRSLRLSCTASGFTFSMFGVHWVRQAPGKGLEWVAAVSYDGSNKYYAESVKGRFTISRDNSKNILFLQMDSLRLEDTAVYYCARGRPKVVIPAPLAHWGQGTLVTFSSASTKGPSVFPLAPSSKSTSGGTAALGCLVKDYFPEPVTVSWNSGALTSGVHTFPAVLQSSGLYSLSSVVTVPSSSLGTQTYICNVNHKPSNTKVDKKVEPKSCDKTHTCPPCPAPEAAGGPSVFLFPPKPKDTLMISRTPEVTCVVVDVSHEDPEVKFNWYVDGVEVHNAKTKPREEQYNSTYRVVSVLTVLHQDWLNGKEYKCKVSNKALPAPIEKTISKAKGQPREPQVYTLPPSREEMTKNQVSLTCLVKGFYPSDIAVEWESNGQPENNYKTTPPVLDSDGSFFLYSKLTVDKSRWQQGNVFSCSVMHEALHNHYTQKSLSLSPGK
light: B2 light with T27Q, D31M, L50Q, A51G, R55W, S91T, R93S, L94F
notes: also called PR-1358317

- Potency (IC50) pM, MRC-5 bioassay [3]: 2580 pM
- Potency (IC50) pM, MRC-5 bioassay (recombinant human IL-1α [4]): 38.6 pM
- Potency (IC50) pM, MRC-5 bioassay [5]: 2.46 pM
- Potency (IC50) pM, MRC-5 bioassay [6]: 4.02 pM
- Potency (IC50) pM, MRC-5 bioassay [7]: 50.9 pM
- Potency (IC50) pM, MRC-5 bioassay (recombinant human IL-1β [8]): 58.6 pM
- Kd [9]: 2.6 nM
- koff [9]: 0.00035 s⁻¹
- kon [9]: 130000 M⁻¹ s⁻¹
- Kd (recombinant human IL-1α [10]): 0.2 nM
- koff (recombinant human IL-1α [10]): 3.6e-05 s⁻¹
- kon (recombinant human IL-1α [10]): 180000 M⁻¹ s⁻¹
- Kd [11]: 0.0018 nM
- koff [11]: 9.6e-06 s⁻¹
- kon [11]: 5.3e+06 M⁻¹ s⁻¹
- Kd (recombinant human IL-1β [12]): ≤ 0.00098 nM
- koff (recombinant human IL-1β [12]): ≤ 1e-05 s⁻¹
- kon (recombinant human IL-1β [12]): 1.1e+07 M⁻¹ s⁻¹
B4: DVD4-h1B12.A1-SS-X3, human anti-IL-1α/β DVD IgG1/k mut (234,235) (bispecific antibody)
heavy: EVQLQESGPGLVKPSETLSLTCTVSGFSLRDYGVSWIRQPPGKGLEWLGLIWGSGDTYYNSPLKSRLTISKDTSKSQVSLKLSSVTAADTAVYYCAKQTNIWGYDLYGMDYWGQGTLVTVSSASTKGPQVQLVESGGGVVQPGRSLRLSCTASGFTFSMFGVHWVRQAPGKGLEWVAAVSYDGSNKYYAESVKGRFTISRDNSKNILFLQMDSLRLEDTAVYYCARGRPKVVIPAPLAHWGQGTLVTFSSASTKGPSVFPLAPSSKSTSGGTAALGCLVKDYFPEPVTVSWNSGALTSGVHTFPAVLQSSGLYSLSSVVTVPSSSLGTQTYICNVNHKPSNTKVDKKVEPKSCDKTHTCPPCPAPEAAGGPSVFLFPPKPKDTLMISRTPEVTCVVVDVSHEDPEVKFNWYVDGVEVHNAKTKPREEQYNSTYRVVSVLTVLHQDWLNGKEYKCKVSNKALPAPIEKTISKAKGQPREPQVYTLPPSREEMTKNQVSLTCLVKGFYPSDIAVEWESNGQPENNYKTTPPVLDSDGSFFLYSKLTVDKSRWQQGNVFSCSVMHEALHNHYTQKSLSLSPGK
light: B2 light with T25A, T27Q, D31M, L50Q, S52N, R55P, R93W
notes: also called PR-1358319
